Laboratory results taken from publication PMC6327041, “Histone H3 binding to the PHD1 domain of histone demethylase KDM5A enables active site remodeling” (Nature Communications, 2019).
Changes are numbered by the printed parent chain. Names may count otherwise. One block for each binder: values may come before it. Where no end group is shown, it is not given here. 5‑FAM = 5-carboxyfluorescein; Me3 = trimethyl-lysine

Tests used:
Settings in all cases: both partners purified
KDM5A_(1-797) = target: T1, KDM5A_(1-797) (human, UniProt P29375 1-797); assay: HDX-MS; KDM5A_(1-797) with 50 µM FeSO4 and 100 µM N-OG, with 100 µM H3 10mer effector peptide against apo; 40 mM HEPES, 50 mM KCl, pH 7.9, 4 °C
T1 construct: histone demethylase KDM5A, human, residues 1-797; Cloned into pFASTBAC HTA; the His tag was removed with TEV protease; also called WT KDM5A_(1-797); KMD5A; source: Sf21 (baculovirus), purified (cobalt resin, TEV cleavage, S200 SEC); not shown: His tag, N-terminal, cleaved
T1 sequence (looked up): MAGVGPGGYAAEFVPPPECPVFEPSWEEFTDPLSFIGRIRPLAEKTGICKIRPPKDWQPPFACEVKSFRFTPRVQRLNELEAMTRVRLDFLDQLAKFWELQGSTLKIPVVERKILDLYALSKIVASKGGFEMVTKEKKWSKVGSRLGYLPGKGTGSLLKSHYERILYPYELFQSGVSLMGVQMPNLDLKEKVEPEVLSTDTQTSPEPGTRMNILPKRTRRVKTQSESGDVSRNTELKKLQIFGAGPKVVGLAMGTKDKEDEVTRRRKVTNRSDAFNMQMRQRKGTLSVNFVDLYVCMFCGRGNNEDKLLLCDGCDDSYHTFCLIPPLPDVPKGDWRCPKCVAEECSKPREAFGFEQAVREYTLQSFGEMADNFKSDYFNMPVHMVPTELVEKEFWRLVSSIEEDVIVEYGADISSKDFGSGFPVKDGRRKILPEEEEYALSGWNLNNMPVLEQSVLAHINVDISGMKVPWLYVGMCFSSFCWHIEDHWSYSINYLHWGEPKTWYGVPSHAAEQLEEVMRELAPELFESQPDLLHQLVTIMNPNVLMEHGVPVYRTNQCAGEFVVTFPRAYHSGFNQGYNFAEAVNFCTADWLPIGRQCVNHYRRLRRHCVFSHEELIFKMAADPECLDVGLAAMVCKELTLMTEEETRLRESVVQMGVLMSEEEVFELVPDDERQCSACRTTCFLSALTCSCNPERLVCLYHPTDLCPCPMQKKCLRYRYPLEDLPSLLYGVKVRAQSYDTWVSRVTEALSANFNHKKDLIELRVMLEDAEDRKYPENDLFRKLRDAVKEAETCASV

[1] = target: T2, GST-PHD1 (V291-K347) of KDM5A (human, UniProt P29375 291-347); assay: fluorescence polarisation; competition-based FP: 2 µM GST-PHD1 with 10 nM C-terminal fluorescently labeled H3 peptide and different concentrations of unlabeled competitor peptide
T2 construct: PHD1 domain of histone demethylase KDM5A, human, residues V291-K347; Cloned into pET41a; the vector may add further tags (surmise); also called V291-K347 PHD1; PHD1_(KDM5A); source: E. coli BL21(DE3), purified (Glutathione Sepharose 4B, Superdex 75 SEC); not shown: GST, N-terminal, kept
T2 sequence (looked up): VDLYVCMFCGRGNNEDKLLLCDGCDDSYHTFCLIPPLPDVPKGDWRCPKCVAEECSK

[2] = target: T3, GST-PHD1 (S287-K347) of KDM5A (human, UniProt P29375 287-347); assay: as above
T3 construct: PHD1 domain of histone demethylase KDM5A, human, residues S287-K347; Cloned into pET41a; the vector may add further tags (surmise); also called S287-K347 PHD1; GST-PHD1 (Ser287-Lys347); source: E. coli BL21(DE3), purified (Glutathione Sepharose 4B, Superdex 75 SEC); not shown: GST, N-terminal, kept
T3 sequence (looked up): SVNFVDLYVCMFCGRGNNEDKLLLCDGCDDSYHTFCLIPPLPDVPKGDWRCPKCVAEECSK

[3] = target: T4, GST-PHD1 (S287-K347) D292A of KDM5A (human, UniProt P29375 287-347, D292A); assay: as above
T4 construct: PHD1 domain of histone demethylase KDM5A, human, residues S287-K347 with D292A; Cloned into pET41a; the vector may add further tags (surmise); also called S287-K347 PHD1 D292A; PHD1 D292A; source: E. coli BL21(DE3), purified (Glutathione Sepharose 4B, Superdex 75 SEC); not shown: GST, N-terminal, kept
T4 sequence (looked up): T3 sequence (looked up) with D6A

[4] = target: T2, GST-PHD1 (V291-K347) of KDM5A; assay: fluorescence polarisation; direct FP: 10 nM C-terminal fluorescently labeled H3 peptide with varying concentrations of GST-PHD1
[5] = target: T3, GST-PHD1 (S287-K347) of KDM5A; assay: as above
[6] = target: T4, GST-PHD1 (S287-K347) D292A of KDM5A; assay: as above

- binding result (KDM5A_(1-797)): binds
B1: unmodified H3 10mer effector peptide (H3 Ala1-Ser10) (peptide, UniProt P68431 2-11, looked up)
peptide: ARTKQTARKS
notes: histone H3 N-terminal tail, 10mer Ala1-Ser10, unmodified, unlabelled; also called H3 10mer peptide; PHD1-specific H3 10mer peptide

- Kd [1]: 35.5 ± 7.5 µM
- Kd [2]: 34 ± 5.5 µM
- Kd [3]: 511 ± 281 µM
B2: H3K4me3 10mer peptide (peptide, UniProt P68431 2-11, looked up)
peptide: ARTK(Me3)QTARKS
notes: histone H3 N-terminal tail, 10mer Ala1-Ser10; also called tri-methylated H3K4 peptide

- Kd [1]: 2.11 ± 0.27 µM
- Kd [2]: 1.58 ± 0.19 µM
- Kd [3]: 22.2 ± 5.7 µM
B3: H3K4A 10mer peptide (peptide, UniProt P68431 2-11, looked up)
peptide: ARTAQTARKS
notes: histone H3 N-terminal tail, 10mer Ala1-Ser10 with K4A

- Kd [4]: 1.89 ± 0.16 µM
- Kd [5]: 0.68 ± 0.04 µM
- Kd [6]: 5.2 ± 0.26 µM
B4: 5-carboxyfluorescein (5-FAM) conjugated H3 10mer peptide (peptide, UniProt P68431 2-11, looked up)
peptide: ARTKQTARKS-{5‑FAM}
notes: histone H3 N-terminal tail, 10mer Ala1-Ser10, unmodified; also called H3K4me0; C-terminal fluorescently labeled H3 peptide
